Experimental data: paper PMC3500560 (The Journal of neuroscience : the official journal of the …, 2011)

B1: His6-tagged SYD-2LH1 (domain or fragment)
chain: not shown
B2: MBP-LH1 fusion protein (domain or fragment)
chain: not shown

Legend:
cross-linking = molecular target: the molecule itself; assay: cross-linking
SEC-MALS = molecular target: the molecule itself; assay: SEC-MALS

Row | Protein | stoichiometry N (cross-linking) | stoichiometry N (SEC-MALS)
1 | B1 | 2 | –
2 | B2 | – | 2
